Holding throughout (experiment): cell-based or functional assay
Experiment [1] has as its target T1, AVR3a homolog from Phytophthora palmivora designated as L3B (Phytophthora palmivora).
T1 sequence: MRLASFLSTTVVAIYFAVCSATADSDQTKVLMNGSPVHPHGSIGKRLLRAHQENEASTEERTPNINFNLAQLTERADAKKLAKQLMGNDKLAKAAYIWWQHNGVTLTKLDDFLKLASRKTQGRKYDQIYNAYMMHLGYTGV

For experiment [2], the target named is T2, AVR3a homolog from Phytophthora palmivora designated as L6B (Phytophthora palmivora).
T2 sequence: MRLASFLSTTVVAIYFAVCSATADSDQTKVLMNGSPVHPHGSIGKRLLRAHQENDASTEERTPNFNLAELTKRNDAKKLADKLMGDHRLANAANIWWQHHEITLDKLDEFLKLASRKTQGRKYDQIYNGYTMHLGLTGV

In experiment [3] the target is T3, AVR3a homolog from Phytophthora palmivora designated as L7B (Phytophthora palmivora).
T3 sequence: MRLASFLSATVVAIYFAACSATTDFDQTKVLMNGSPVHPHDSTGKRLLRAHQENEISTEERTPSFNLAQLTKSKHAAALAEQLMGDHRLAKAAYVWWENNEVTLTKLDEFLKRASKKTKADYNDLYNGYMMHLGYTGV

Experiment [4] addresses AVR3a^KI effector protein of Phytophthora infestans (Phytophthora infestans) (UniProt Q572D3).

B1: modified R3a protein corresponding to clone GS4 (protein)
chain: MEIGLAVGGAFLSSALNVLFDRLAPHGDLLNMFQKHKDHVKLLKKLEDILLGLQIVLSDAENKQASNRHVSQWFNKLQNAVDGAENLIEQVNYEALRLKVEGQHQNLAETSNQQVSDLNLCFSDDFFLNIKDKLEETIETLEVLEKQIGRLGLKEHFGSTKQETRTPSTSLVDDSDIFGRQNDIEDLIDRLLSEDASGKKRTVVPIVGMGGLGKTTLAKAVYNDERVQIHFGLKAWFCVSEAFDAFRITKGLLQEIGSFDLKADDNLNQLQVKLKERLKGKKFLIVLDDVWNDNYNKWDELRNVFVQGDIGSKIIVTTRKESVALMMGNEQISMDNLSTESSWSLFKTHAFENMGPMGHPELEEVGKQIAAKCKGLPLALKTLAGMLRSKSEVEEWKRILRSEIWELPHNDILPALMLSYNDLPAHLKRCFSFCAIFPKDYPFRKEQVIHLWIANGLVPQEDVIIEDSGNQYFLELRSRSLFERVPNPSQGNTENLFLMHDLVNDLAQIASSKLCIRLEESQGSHMLEQSQHLSYSMGYGGEFEKLTPLYKLEQLRTLLPTCIDLPDCCHHLSKRVLHNILPRLTSLRALSLSCYEIVELPNDLFIKLKLLRFLDISRTEIKRLPDSICALYNLETLLLSSCYDLEELPLQMEKLINLRHLDISNTRPLKMPLHLSKLKSLQVLVGAKFLIGGLRMEDLGEVHNLYGSLSVVELQNVVDRREAVKAKMREKNHVDRLYLEWSGSSSADNSQTERDILDELRPHKNIKVVKITGYRGTNFPNWLADPLFLKLVKLSLRNCKNCYSLPALGQLPFLKFLSIREMHGITEVTEEFYGSWSSKKPFNCLEKLEFKDMPEWKQWDLLGSGEFPILEKLLIENCPELSLETVPIQLSSLKSFDVIGSPLVINFPLSILPTTLKRIKISDCQKLKLEQPTGEISMFLEELTLIKCDCIDDISPELLPRARKLWVQDWHNLTRFLIPTATETLDIWNCENVEILSVACGGTQMTSLTIAYCKKLKWLPERMQELLPSLKELHLSNCPEIESFPEGGLPFNLQQLAIRYCKKLVNGRKEWHLQRRLCLTALIIYHDGSDEEIVGGENWELPSSIQRLTIVNLKTLSSQHLKNLTSLQYLFIRGNLPQIQPMLEQGQCSHLTSLQSLQISSLQSLPESALPSSLSHLEISHCPNLQSLPESALPSSLSQLTINNCPNLQSLSESTLPSSLSQLEISFCPNLQYLPLKGMPSSLSELSIYKCPLLKPQLEFDKGEYWPNIAQFPTIKIDRECM
In the case of B1, the Cell death/HR intensity, pVnt1-R3aGS4, 1dpi in experiment [1] came to 0; in experiment [2], 0; in experiment [3], 2; in experiment [4], 2. Moreover, the Cell death/HR intensity, pVnt1-R3aGS4, 2dpi in experiment [1] amounted to 2; in experiment [2] it was 0; in experiment [3], 2; in experiment [4], 4. The Cell death/HR intensity, pVnt1-R3aGS4, 3dpi stood at 3 in experiment [1], 0 in experiment [2], 2 in experiment [3] and 4 in experiment [4].
